Results taken from the DeepSol protein solubility set.

Test: soluble on expression in E. coli; label from the status in PepcDB or PDB records

Sequence | soluble on expression in E. coli
MLITDTLSPQAFEEALRAKGDFYHIHHPYHIAMHNGNATREQIQGWVANRFYYQTTIPLKDAAIMANCPDAQTRRKWVQRILDHDGSHGEDGGIEAWLRLGEAVGLSRDDLLSERHVLPGVRFAVDAYLNFARRACWQEAACSSLTELFAPQISQSRLDSWPQHYPWIKEEGYFYFRSRLSQANRDVEHGLALAKAYCDSAEKQNRMLEILQFKLDILWSMLDAMTMAYALQRPPYHTVTDKAAWHTTRLVLEHHHHH | soluble
MLKGEDIGIDLGTASVLIYVRGKGIVLKEPSVIAVVQGKREVKAVGAEAYRMLGRTPGNIVAVRPLKDGVIADYALTEKMLLLFLQKVLSPMSRLFKGRVRIMVGVPSGVTDVERRAVVQAVSTLAHKVYLIEEPLAAAIGAGINVAEPTGSMVVDIGGGSTDIAVISLGGIVRSESLRIAGNEMDQAIILHIRQKYNLLIGERTAEELKIRLGRAKLLPGEEKEVAEVRGRDLLTGLPRTAEIPAEDIVEALQEPLSKIFQGVRNVLESTPPELASDIYERGILLTGGGALLRNLDVALQKATGVPVVVTENPIEAVALGTGKALEMLHVLEDTILSSDDVLRR | soluble
MLKGFTPWPDELAETYRKNGCWAGETFGDLLRDRAAKYGDRIAITCGNTHWSYRELDTRADRLAAGFQKLGIQQKDRVVVQLPNIKEFFEVIFALFRLGALPVFALPSHRSSEITYFCEFAEAAAYIIPDAYSGFDYRSLARQVQSKLPTLKNIIVAGEAEEFLPLEDLHTEPVKLPEVKSSDVAFLQLSGGSTGLSKLIPRTHDDYIYSLKRSVEVCWLDHSTVYLAALPMAHNYPLSSPGVLGVLYAGGRVVLSPSPSPDDAFPLIEREKVTITALVPPLAMVWMDAASSRRDDLSSLQVLQVGGAKFSAEAARRVKAVFGCTLQQVFGMAEGLVNYTRLDDPEEIIVNTQGKPMSPYDESRVWDDHDRDVKPGETGHLLTRGPYTIRGYYKAEEHNAASFTEDGFYRTGDIVRLTRDGYIVVEGRAKDQINRGGEKVAAEEVENHLLAHPAVHDAAMVSMPDQFLGERSCVFIIPRDEAPKAAELKAFLRERGLAAYKIPDRVEFVESFPQTGVGKVSKKALREAISEKLLAGFKK | soluble
MLKIIQGALDTRELLKAYQEEACAKNFGAFCVFVGIVRKEDNIQGLSFDIYEALLKTWFEKWHHKAKDLGVVLKMAHSLGDVLIGQSSFLCVSMGKNRKNALELYENFIEDFKHNAPIWKYDLIHNKRIYAKERSHPLKGSGLLALEHHHHHH | soluble
MLKNLRIGKFEPEEEYVHFTYSIKNSEREKSKELIKEYRTLLQKAIDYLWSLTKIQVRKKNGNYKITLPKKKEVYKPLREELEKINHLASHYVDKAINDAFSILKSWRKRAIKGRASIEKPRVKKAYVRIKTTLRKVVGESVRITVRPHEYITFPWSKSWFSRRVRELELGEPIIKEEKVYLPFRYKLPWVTPVNFLAIDSNLYTLDAYDGEKFVTISLKQLYSLKYSMEVKRAKVQSFASKHTKRGRELMRKYSHRERNRVLDFVHKFVNALLDLYPMTFFAVEKLDKEGMFVDANESLSRKISRTVWRSIHRVLKYKAPLYGSFVKEVNPYLTSRSCPRCGFVSRKVGKTFECERCGFKLDRQLNASLNIYLKMCGFPHIREIARVWVGVIPLMGRRGMNVRDFGEAQGLRINIKYHEIPLEHHHHHH | not soluble
MLKPEMIEKLNEQMNLELYSSLLYQQMSAWCSYHTFEGAAAFLRRHAQEEMTHMQRLFDYLTDTGNLPRINTVESPFAEYSSLDELFQETYKHEQLITQKINELAHAAMTNQDYPTFNFLQWYVSEQHEEEKLFKSIIDKLSLAGKSGEGLYFIDKELSTLDTQN | soluble
MLKQNTEREGRTIEQEDLKNLENEITEARENEDKYFSTFKGVRGQLIKECQEMKDEAFKIAYDGVMADSKHLENVKAGRLTEVQHEELAKEKGQEASEKALPKTPLGVAIMLKHYLRFIRVKPEAQGQKAPLYFFHPDHGVWLEDNEFLQDLISVIFPNATEKQAFDTLYKIARQSQLKEIQREYTVIGNQLYNYKTGQFEELTPDITVTRKIKTGYNKKAKEPTIKGWKPTAWLLELFDGDAELYNLAIQIIKASITGQSLQKIFWLFGEGGTGKGTFQQLLINLVGMDNVASLKITELAKSRFTTSILLGKSIVIGDDIQKDAVIKDTSDIFSLATGDIMTIEDKGKRPYSIRLNMTVVQSSNGLPRMNGDKSAIDRRFRILPFTKVFKGKPNKAIRNDYINRKEVLEYLLKLAIETPITDINPKASIEILEEHHKEMNPVIDFVSKFFTDELTSEFIPNSFVYHVWKGFLEYYDIKQIKSERGLHKEIKSNLPEGFEAGQKVIPVGRQLHTGFYPKEDLPLFASASYANGRASPEKRKKPKNERGYYNHWPTHKKQKKT | soluble
MLKRTPLFPVYARYGAKTIEFGGWEMPVQFSSIKEEHEAVRTRAGLFDVSHMGEIVVRGRGSLAFLQKLMTNDVAKLRPGRAQYTLMCYEDGGTVDDLLIYQKGENDYLLVVNAANTEKDFAWLSGHVEGDVELQDVSSETAQLALQGPAAERVLQRLTDFDLAALRPFSFADGVEVSGVKALVSRTGYTGEDGFELYCKAEDAAALWEAILAAGARDGVLPCGLGARDTLRFEACLPLYGQELSDSISPVEAGLGFAVKTEKEPPFIGQAVLKRQKEEGPPRRLVGIEMIDRGIPRHGYLVFADGEEVGFVTTGTQSPTLKKNIGLALVKADVAAIGREVEVDIRGKRLKANIVPIPFYRRAK | not soluble
MLKVESISKDYREFKLREISFDVREGEHFIILGPSGSGKTVLLEIIAGIISPDRGRILLRGEDITGLPPEKRNFSYIPQNYALFPHMTVFDNIAFGLKLRKIPRKEVARKVREVAESLGIDHLLHRKPRTLSGGEQQRVAIARALVVKPELLLMDEPFANLDVQTKSKLIREMKRWRKEFGFTAIHVTHSFEEALSLGDRVGIMLRGRLVQVGDVRDVFSKPKSEEVARFLGFENIIEGVANGRILKVGDLRIELPREVWGKVRVGIRPEDITIFMEGVKTSARNVFKARVEGIEDLGALVKLTLNLGGIILRAFITRSSLIELGIREGEEVYASFKASAIHVFP | soluble
MLLGMSLEELTTVALRMGMPRFAGKQLAEWIYVRRATDFAEMTNISQANRQKLAEIYDLGRYPWSDVQCSVDGTKKYLFPVGEGRFVESVLIPEGDRATLCISSQVGCKMDCLFCMTGKQGWNGNLSAAEILNQIFSVDEAAELTNLVYMGMGEPLDNTDEVLRSIEALTEPWGMGWSPKRITVSTIGAKGLERFLAESRCHLAVSLHSPFPEERRKLMPGEKAFPIMQTLDRIRAYDFSGQRRVSFEYIVFDGLNDDMRHADELAAILRGIPCRINLIRFHKIPAVSLRSSDTARMEAFRKRMESHGFTCTIRASRGEDIFAACGMLSTSKAESSEEKSS | not soluble
MLLNLFNEMRAAKVPVSLRELLDLINALKQRVIFADIDEFYFLARTILVKDERHFDKFDRAFGAYFNGLEKLDDHLQALIPEDWLRKEFERSLSDEERAQIQSLGGLDKLIDEFKKRLEEQKERHAGGNKWIGTGGTSPFGSGGYNPEGIRVGDAGERKGKAVKVWDQREYKNLDDQVDLGTRNIKVALRRLRKFARQGAADELDIDGTIDHTARDAGLLNIQMRPERRNTIKLLLLFDIGGSMDSHVKVCEELFSACKTEFKHMEYFYFHNFIYETVWKNNLRRGSERTATQDLLHKYGADYKVIFIGDASMAPYEITQPGGSVEHWNEEAGYVWMQRFMAKFKKVIWINPYPKDAWDYTTSTHIVRDLIEQHMYPLTLQGLEDGMRYLA | not soluble
MLLRILIADDEPLARERLRVLLQAQMQHLEVVAEAENGEQVLHDCQRLNPDLVLMDIAMPGIDGLETARYLRYLPACPAVVFCTAYGDHALSAFDVEAIDYLMKPVRAERLHAALKRVQTFVAGRLREPQTSCDETPRTHLCVRIRGGLRLIPLDQVRYLQADEKYVVICHEQGEDLIEESLKSLEKEFSDRFVRIHRNCLIARAELTELRRCSDGQVQAVLRNVVTPLAVSRRCVPLLCDQLRLSAVLTGRWLEHHHHHH | not soluble
MLLSIITVAFRNLEGIVKTHASLAHLAQAEDISFEWIVVDGGSNDGTREYLENLNGIYNLRFVSEPDNGIYDAMNKGIAMAQGKFALFLNSGDIFHQDAAYFVRKLKMQKDNVMITGDALLDFGDGHKIKRSAKPGWYIYHSLPASHQAIFFPVSGLKKWRYDLEYKVSSDYALAAKMYKAGYAFKKLNGLVSEFSMGGVSTTNNMELCADAKKVQRQILHVPGFWAELSWHLRQRTTSKTKALYNKS | not soluble
MLLSSCQSLFSPAYQSTLRPSDNPQTVEQVQKNDPRAQMGAREHPRIVASYGGEYRDAKTERLVARIAGALTAVSENPQQSYRITILNSPAINAFALPGGYLYVTRGLLALANDASEVAAVLSHEMGHVTANHGIERQRREEAEVIASRVVAEVLSSDLAGKQALARGKLRLAAFSRQQELQADVIGVRMLGEAGYDPYASPRFLDSMAAYARFSSADPENDQSLDFLSSHPNTPQRIELARRHARAFGQEGQVGDRGRDWFLDGIDGLLYGDSPQEGYVRGQTFLHGTLGIRFDVPEGFVIDNKVEAVLATGPGDMAIRFDGVADPKQTSLANYLTSGWVAGLLPETVKETQINGLEAATARASADKWDFDVTVIRVGQQIFRFLTAVPKGNTQLDSIANVLRTSFRKMTPQEIASLKPLRVRVVTVKPGETVATMAARMMGTERKLDMFRMINAMSATATLQPGQRVKIISELEHHHHHH | not soluble
MLMNNNNVYSLNNFDFLARSFARMQAEGRPVDIQAVTGNMDEEHRDWFCKRYALYCQQATQAKRLELEH | not soluble
MLNEREKILLKTLVERYIHEGQPVGSRSLAKFSGLDLSPATIRNVMTDLEEMGYVSSPHTSAGRMPTTLGYRFFVDTLLVVKSLDNEQITLLENQLHPNNPTHLMNVTSRLLSELTRFVGVVVTPKRMGGAVFRHIEFVALTEKRILLILVTPEGDVQNRIILTETAYSQSDLIEAGNFLNQHYAGCTLEEIRSGLQRELTQLRRDMTGLMNAAIEIGNDALQESSEAVVIAGEHRLFDVRDLSDNLSSLKSLFEMFERKSKLLQLMELSRQAHGVKIFIGGESDETMLEEVSVVTAPYEMEGKIVGTVGVIGPRRMAYERIIPIVDITAKLLSSNLS | not soluble
MLNETIQKEFQRKEIKYLIEADTFEQLQKEFKDYLTPDRFTHSSITNIYFDNPDFQLIKDSINHRHASEKIRMRTYDPKPTQKSQAFLEIKKKEYQGEQEIGYKYRLTSTPLSLCNYVQQGIIDNNIKQDDRANHELAILRERYKKLVPKMFIHYERFSLRGIENPKLRVTFDRNVIYRHENVNLTSGFNGYPLLKNNQIVMEIKVKNGLPAWMEKIFHKHQLIPQSFSKYTTAYLKAYGLTPEDIREEPTSIALEHHHHHH | soluble
MLNHIVMWKIKEDVEDKEKVKLGIKNGLEGLFGKIEELREIRVERFMESTSTHDVALFVKVDNEDTLKKYATNPLHVEIIKNYIKPFVYDRVCIDFFELEHHHHHH | not soluble
